Assay results from article PMC3961267.

System: P266L T7 RNA polymerase (bacteriophage T7)
Experiment: fluorescence anisotropy
Conditions: Buffer A: 50 mM Tris-acetate, 50 mM sodium acetate, 10 mM magnesium acetate, 5 mM DTT, 25 C; pH not stated

Q: Which Kd does the source give for TAMRA-labeled T7 consensus promoter DNA here?
A: 3.6 nM
